Where “and” joins values, the source holds several entries; their conditions need not be identical. Equal values may be shown once. Read-outs that look alike come from different tables or passages of the source.

Test [1] has as its target T1, SARS-CoV-2 RBD Y453F (SARS-CoV-2, UniProt P0DTC2 319-541). Nature of the test: BLI, RBD on anti-Penta-His sensor.
In test [2] the target is T2, SARS-CoV-2 RBD G446V (SARS-CoV-2, UniProt P0DTC2 319-541). Description: BLI, RBD on anti-Penta-His sensor.
In test [3] the target is T3, SARS-CoV-2 RBD E484K (SARS-CoV-2, UniProt P0DTC2 319-541). Nature of the test: BLI, RBD on anti-Penta-His sensor. Background: In BLI a coated tip is dipped into the sample, and binding shifts an interference pattern.
Test [4] concerns the target T4, SARS-CoV-2 RBD K417E (SARS-CoV-2, UniProt P0DTC2 319-541). Description: BLI, RBD on anti-Penta-His sensor.
The target of test [5] is T1, SARS-CoV-2 RBD Y453F. Description: BLI, blocking of ACE2-Fc binding to RBD.
Test [6] concerns the target T2, SARS-CoV-2 RBD G446V. Description: BLI, blocking of ACE2-Fc binding to RBD.
Test [7] has as its target T3, SARS-CoV-2 RBD E484K. Description: BLI, blocking of ACE2-Fc binding to RBD.
Test [8] concerns the target T4, SARS-CoV-2 RBD K417E. Nature of the test: BLI, blocking of ACE2-Fc binding to RBD.
Test [9] concerns the target T1, SARS-CoV-2 RBD Y453F. Nature of the test: BLI, blocking of ACE2-Fc binding to RBD. The source holds these as a separate data set.
Test [10] deals with T2, SARS-CoV-2 RBD G446V. Nature of the test: BLI, blocking of ACE2-Fc binding to RBD. The source holds these as a separate data set.
For test [11], the target named is T3, SARS-CoV-2 RBD E484K. Description: BLI, blocking of ACE2-Fc binding to RBD. This is another data set of the same source.
The target of test [12] is T4, SARS-CoV-2 RBD K417E. Description: BLI, blocking of ACE2-Fc binding to RBD. This is another data set of the same source.
Test [13] addresses T1, SARS-CoV-2 RBD Y453F. Description: BLI, RBD on anti-Penta-His sensor. This is another data set of the same source.
Test [14] has as its target T2, SARS-CoV-2 RBD G446V. Description: BLI, RBD on anti-Penta-His sensor. The source holds these as a separate data set.
In test [15] the target is T3, SARS-CoV-2 RBD E484K. Description: BLI, RBD on anti-Penta-His sensor. The source holds these as a separate data set.
In test [16] the target is T4, SARS-CoV-2 RBD K417E. Description: BLI, RBD on anti-Penta-His sensor. The source holds these as a separate data set.
For test [17], the target named is T1, SARS-CoV-2 RBD Y453F. Nature of the test: BLI, blocking of ACE2-Fc binding to RBD. This is another data set of the same source.
Test [18] has as its target T2, SARS-CoV-2 RBD G446V. Description: BLI, blocking of ACE2-Fc binding to RBD. The source holds these as a separate data set.
Test [19] concerns the target T3, SARS-CoV-2 RBD E484K. Description: BLI, blocking of ACE2-Fc binding to RBD. This is another data set of the same source.
The target of test [20] is T4, SARS-CoV-2 RBD K417E. Description: BLI, blocking of ACE2-Fc binding to RBD. The source holds these as a separate data set.
The target of test [21] is T1, SARS-CoV-2 RBD Y453F. Description: BLI, RBD on anti-Penta-His sensor. The source holds these as a separate data set.
Test [22] deals with T2, SARS-CoV-2 RBD G446V. Description: BLI, RBD on anti-Penta-His sensor. This is another data set of the same source.
Test [23] has as its target T3, SARS-CoV-2 RBD E484K. Nature of the test: BLI, RBD on anti-Penta-His sensor. The source holds these as a separate data set.
Test [24] addresses T4, SARS-CoV-2 RBD K417E. Description: BLI, RBD on anti-Penta-His sensor. The source holds these as a separate data set.

B1: Ab8 IgM (antibody)
VH: EVQLVESGGGLIQPGGSLRLSCAASGFTVSRNYMNWVRQAPGKGLEWVSVIYSGGSTFYADSVKGRFTISRDNSKNTLYLQMNSLRAEDTAVYYCARDASSYGIDWGQGTLVTVSS
VL: not shown
chain: not shown
As usually defined, the Kd is a measure of binding affinity in units of concentration. Low values mean tighter binding, high ones weaker binding. A word on the IC50: it is the concentration that gives 50% inhibition. A higher IC50 goes with weaker potency in that assay. For B1, the Kd in [1], in test [2], in [3] and in [4] was under 1 pM each time. In addition, the IC50 in test [5] was 0.98 µg/mL and 1.1 nM; in test [6], 0.78 µg/mL and 0.9 nM; in test [7], 1.3 µg/mL and 1.5 nM; in [8] it was 1 µg/mL and 1.2 nM.

B2: Ab8 IgG (antibody, V domains shown)
VH: EVQLVESGGGLIQPGGSLRLSCAASGFTVSRNYMNWVRQAPGKGLEWVSVIYSGGSTFYADSVKGRFTISRDNSKNTLYLQMNSLRAEDTAVYYCARDASSYGIDWGQGTLVTVSS
VL: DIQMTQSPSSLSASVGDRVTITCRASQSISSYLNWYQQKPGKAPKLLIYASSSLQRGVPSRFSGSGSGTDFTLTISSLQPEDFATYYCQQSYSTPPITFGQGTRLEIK
Consider B2, for which the dissociation constant (Kd) in test [1] is under 1 pM; in test [2], under 1 pM; in test [3] it was under 1 pM; in test [4] it was 2000 pM. Also, the 50% inhibitory concentration (IC50) in test [5] is 1 µg/mL and 7.2 nM; in test [6], 0.88 µg/mL and 6.1 nM; in test [7] it was 2.8 µg/mL and 19 nM; in [8], 1 µg/mL and 7.2 nM.

B3: Ab10 IgM (antibody)
VH: QITLKESGPTLVKPTQTLTLTCTFSGFSLSTSGVGVGWIRQPPGKALEWLALIYWDDDKRYSPSLKSRLTITKDTSKNQVVLTMTNMDPVDTATYYCAHHKIERIFDYWGQGTLVTVSS
VL: QSALAQPASVSGSPGQSITISCTGTSSDVGAYNYVSWYQQHPGKAPKLMIYDVSKRPSGVSNRFSGSKSGNTASLTISGLQAEDEADYYCSSYTTSSTVFGGGTKLTVL
chain: not shown
Take B3: the 50% inhibitory concentration (IC50) in test [9] is 0.49 nM and 0.42 µg/mL; in test [10] it was 5 nM and 4.3 µg/mL; in test [11], 0.47 nM and 0.41 µg/mL; in test [12], 0.32 nM and 0.28 µg/mL. Moreover, the Kd in test [13] is under 1 pM; in [14], 110 pM; in test [15], under 1 pM; in test [16], under 1 pM.

B4: Ab10 IgG (antibody, V domains shown)
VH: QITLKESGPTLVKPTQTLTLTCTFSGFSLSTSGVGVGWIRQPPGKALEWLALIYWDDDKRYSPSLKSRLTITKDTSKNQVVLTMTNMDPVDTATYYCAHHKIERIFDYWGQGTLVTVSS
VL: QSALAQPASVSGSPGQSITISCTGTSSDVGAYNYVSWYQQHPGKAPKLMIYDVSKRPSGVSNRFSGSKSGNTASLTISGLQAEDEADYYCSSYTTSSTVFGGGTKLTVL
Turning to B4, the 50% inhibitory concentration (IC50) in test [9] was 8.6 nM and 1.2 µg/mL; in test [10], > 69 nM and > 10 µg/mL; in test [11], 10 nM and 1.5 µg/mL; in test [12] it was 3.8 nM and 0.55 µg/mL. Moreover, the Kd in test [13] was under 1 pM; in test [14] it was 120000 pM; in test [15], under 1 pM; in [16] it was under 1 pM.

B5: Ab7 IgM (antibody)
VH: EVQLVESGGGLVQPGGSLRLSCAVSGFTVSSNYMSWVRQAPGKGLEWVSVIYTGGGTYYADSVKGRFTISRDNSKNTLYLQMNTLRAEDTTVYYCARGDGSYYRAFDYWGQGTLVTVSS
VL: DIQMTQSPSSLSASVGDRVTITCRASQSISNYLNWYHQKPGKAPKLLIYAASSLQSGVPSRFSGSGSGTDFTLTISSLQPEDFATYYCQQSYSPPPTFGPGTKVEIK
chain: not shown
Consider B5, for which the half-inhibitory concentration (IC50) in [17] was 0.42 nM and 0.36 µg/mL; in test [18] it was 0.32 nM and 0.28 µg/mL; in test [19] it was 0.87 nM and 0.76 µg/mL; in test [20] it was 0.36 nM and 0.31 µg/mL. Further, the equilibrium dissociation constant (Kd) was under 1 pM in [21], under 1 pM in test [22], 7 pM in test [23] and under 1 pM in test [24].

B6: Ab7 IgG (antibody, V domains shown)
VH: EVQLVESGGGLVQPGGSLRLSCAVSGFTVSSNYMSWVRQAPGKGLEWVSVIYTGGGTYYADSVKGRFTISRDNSKNTLYLQMNTLRAEDTTVYYCARGDGSYYRAFDYWGQGTLVTVSS
VL: DIQMTQSPSSLSASVGDRVTITCRASQSISNYLNWYHQKPGKAPKLLIYAASSLQSGVPSRFSGSGSGTDFTLTISSLQPEDFATYYCQQSYSPPPTFGPGTKVEIK
On to B6, for which the IC50 in [17] is 3.2 nM and 0.46 µg/mL; in [18], 2.1 nM and 0.3 µg/mL; in test [19], > 69 nM and > 10 µg/mL; in [20], 2.4 nM and 0.35 µg/mL. Moreover, the Kd in test [21], in [22] and in test [24] was under 1 pM each time.

For the origin of these results see patent publication US20220403009A1 (IGM BIOSCIENCES, published 2022).
